Reference: publication PMC2762092 (The Journal of Cell Biology, 2009)

T1: 6xHis-tagged SPN-2 (full-length) (C. elegans, UniProt Q20898 1-761)
T1 sequence: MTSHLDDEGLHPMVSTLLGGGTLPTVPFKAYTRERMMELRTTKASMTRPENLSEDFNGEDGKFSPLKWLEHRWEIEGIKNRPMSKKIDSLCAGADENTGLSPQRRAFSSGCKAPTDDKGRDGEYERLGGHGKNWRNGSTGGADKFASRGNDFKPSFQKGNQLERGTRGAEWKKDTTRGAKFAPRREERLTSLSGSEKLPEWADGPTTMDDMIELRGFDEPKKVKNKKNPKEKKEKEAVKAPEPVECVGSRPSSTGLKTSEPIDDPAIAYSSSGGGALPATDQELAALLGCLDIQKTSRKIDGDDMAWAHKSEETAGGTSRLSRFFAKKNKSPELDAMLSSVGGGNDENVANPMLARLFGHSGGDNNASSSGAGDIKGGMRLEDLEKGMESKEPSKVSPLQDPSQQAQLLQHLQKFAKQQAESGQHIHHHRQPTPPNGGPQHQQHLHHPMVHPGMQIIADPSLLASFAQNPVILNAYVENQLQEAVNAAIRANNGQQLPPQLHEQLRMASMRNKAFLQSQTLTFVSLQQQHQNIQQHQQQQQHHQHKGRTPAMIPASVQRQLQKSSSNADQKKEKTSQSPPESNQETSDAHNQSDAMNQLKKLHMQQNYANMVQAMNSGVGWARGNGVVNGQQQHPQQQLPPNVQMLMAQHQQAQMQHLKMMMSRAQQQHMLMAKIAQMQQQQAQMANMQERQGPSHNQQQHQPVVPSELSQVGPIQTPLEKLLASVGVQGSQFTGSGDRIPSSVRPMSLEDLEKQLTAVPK

T2: 6xHis-tagged SPN-2N (SPN-2 N-terminal fragment, 1-399 aa) (C. elegans, UniProt Q20898 1-399)
T2 sequence: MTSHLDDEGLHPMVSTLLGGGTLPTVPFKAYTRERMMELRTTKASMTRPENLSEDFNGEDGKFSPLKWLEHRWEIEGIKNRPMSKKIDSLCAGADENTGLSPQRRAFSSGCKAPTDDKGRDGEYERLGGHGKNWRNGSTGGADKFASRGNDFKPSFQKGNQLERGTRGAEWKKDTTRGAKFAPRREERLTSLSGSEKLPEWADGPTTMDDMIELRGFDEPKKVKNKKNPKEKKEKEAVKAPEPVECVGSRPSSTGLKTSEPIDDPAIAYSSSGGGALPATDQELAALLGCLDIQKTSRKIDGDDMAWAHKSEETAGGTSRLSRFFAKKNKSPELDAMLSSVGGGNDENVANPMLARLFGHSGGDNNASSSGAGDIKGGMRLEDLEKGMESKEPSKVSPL

B1: GST–IFE-2 (natural protein)
chain: MSEEPVAAPGTISHPVYKLKRNWTWWYLNDERNKSWEERLKNVKTFSSVGEFWALHDSIKPPSGLNPPSDYNVFRDGIEPMWEVPQNQNGGRWLITIEKGRTPEIMDTIWTEILMAMIGEQFSDDIESLCGIVCNVRGKGSKISVWTTNSADDGANLRIGGVLKQVLNNASMIHQRPLYDVLRYEDHESCQKKTSSGVKAKHAIYAVEPREEKAPVPVSTETPATPAT
B2: GST–IFE-5 (natural protein)
chain: MTELTTPIYPLQRNWSWWFLNDDRNASWQDRLKKVYTFNTVPEFWAFYEAILPPSGLNDLCDYNVFRDDIQPKWEAPENWDGGRWLIIINKGKTPEVLDAVWLEILLALIGEQFGKDMESICGLVCNVRGQGSKISVWTKNCNDDDTNMRIGVVLKEKLMAAASKAHSKPLFDVIHYQTHRNCVKKTTSALKYKFSLKSIV
B3: GST–IFE-1 (natural protein)
chain: MTETEQTTAPIYPLKRNWTWWYLNDERNKSWEDRLKKVYTFNTVSEFWALYDAIRPPSGLNALCDYNVFRDDIQPMWEVPENSNGGRWLIVIDKGKTPEMVDAIWLEILMALVGEQFGKDMESICGLVCNVRGKGSKISVWTKDCNDDETNMRIGVVLKEKLMAASKDHSKPLFDVIRYEDHESCQKKTSSVVKAKLSLHSSDAPVAEKSAV

Experiments:
Test in all cases: pull-down
[1] = target: T1, 6xHis-tagged SPN-2 (full-length)
[2] = target: T2, 6xHis-tagged SPN-2N (SPN-2 N-terminal …)
[3] = target: T1, 6xHis-tagged SPN-2 (full-length); remark: listed apart in the source

| Binder | binding result [1] | binding result [2] | Kd [3] [nM] |
| --- | --- | --- | --- |
| B1 | binds | binds |  |
| B2 | binds | binds |  |
| B3 |  |  | 33 |
